Changes are numbered by the printed parent chain.
B1: unnamed (protein)
chain: MRKETAWFVGGAAIAAATAAGASVWSQYGSLVRWQEPELPIQPTTRRRHTYTYKIVHDRPLQFDLYLPPGEGPFPVAVYAHGGAFVRGNRSMVTLFHPLLDHFLGKGIAVVSIDYRLFEDGVYFPDNIFDVSDALCYLKQHESLLTLDTSQLLVWGDSAGAALMLATALDRYRQFAGDLGDDLPTIKGVIALYPPTNFLLFKFIQTWLAHLKFYEGSREEWRELMVKCSPVSHLYADAPPILLLHGKKDPIVPFGQALHFVEHASDVGANVQLISFPNGTHSLASFLQSDNPIKEEQLMARINRFIEECLG
B2: unnamed (protein)
chain: MLHYKTYTISDDHPWVIFIHGAGGSLSHWYRQLRPFRKKYNVLLVDLRGHGGSYDAEQSLKQPLNAYTFDVVAKDVIEVMDHLGIEKGHMVGLSLGTIVIQAMFEHYPDRIASVVLGGAIVKFNVRSTMLIRLGSLVQNFVPYMWLYKLFAWILLPKKRHKKSRMMFVRDAANLCQREFIRWFKMTENINPLLNQFTSIQTNVPILYIMGDEDYMFLEAVERTAKHQPTANVEIVADSGHVVNVDQPDQFNALSMNFIDDQIQARSLQMS
B3: unnamed (protein)
chain: MVPTTVDFDTLCPEPIFQDRWVATPRGRVFTRTWETSHLRSDVPIVLLHDSLGCVDLWRSFPAALCAATQRRVIAYDRLGFGRSDACLTPPLLSFIDDEPSTSFAALQSAFQLTHFIALGHSVGGCMAVHCAGQYVEQCQGLITIAAQAVNEPRTQQGIEEARAAFQMPEQFAKLEKYHGNKARWVLNGWIDTWLHPAFEHWSLTPALQHVHCPTLVLHGENDEYGSHRQPEGIARHTRGPAHTEILPGVGHVPHREVEAVVVHYVSEFIERLTP
B4: unnamed (protein)
chain: MFRFHIVSALLTLFIAVPSQAHDVGQREIKISGAEPGRNLEVSVWYPAAIDGKATLIGDNIIFKGAPAVIDATPEKGSFPLLVMSHGSGGRAQGMAWLATELVKAGIIVAAPNHPGTTSGDSTPQDTPKIWQRTGDLSAVIDTMTTDPAWSGIIDKNKISVLGWSLGGAAAMEIAGARANLEAYARYCDTYGKWDCAWYAGGIGYRDDKQIKVDKVDLRSVDKSRFEQSNLDRRIASAIMIDPGLAQAYDAQSLASISIPMSFINLGEVETIPTGVVADKLASITPQGTYVTVAGATHFSFLPECKKGAADRLKSAGEVDPICSDDARRPRADIHADITKLVLKALQSMPKT
B5: unnamed (protein)
chain: B4 chain with W164F, S165A
B6: unnamed (protein)
chain: B4 chain with W164F, H298A
B7: unnamed (protein)
chain: B4 chain with W164H
B8: unnamed (protein)
chain: B4 chain with W164F, F299I
B9: unnamed (protein)
chain: B4 chain with W164F, L166M
B10: unnamed (protein)
chain: B4 chain with W164F, F299W
B11: unnamed (protein)
chain: B4 chain with W164F, D242A
B12: unnamed (protein)
chain: B4 chain with W164F, C188A
B13: unnamed (protein)
chain: B4 chain with W164F, A294D
B14: unnamed (protein)
chain: MPPFRSSRWLSGGHVQTLYSPLWRASPQLQRRRERMTLQDGDFIDLDWYGPEGEATNCVLLLHGLTGSSASLYILGQQQALAARGWQSAAVNWRGCSGEPNHRARGYHSGVSEDLADVVKQLTLRYPHKLFAAIGYSLGGNVLLKYLGEKGSNTPLKAAVAVSVPFRLDHCAERINKGFSRVYQARFLRGLRRYVEHKRQAFLRQGRRGELARLAALETLKGMKTFWDFDGRVTAPLHGFESADDYYRRCSSAFFVEQIRIPTLIVHSLDDPFIYPQSVPKAEVLPSCVTLELHASGGHVGFIEGPPWRPRYYLEHRLPNWLQSQLCSQGKTHNTSALLSN

substrate: pNPB; assay: Proxy for plastic degradation [p-nitrophenol (pNP) release]; conditions: pH 7.4

Protein	Proxy for plastic degradation [U/mL]
B1	25
B2	4
B3	30
B4	5
B5	15
B6	15
B7	15
B8	75
B9	225
B10	110
B11	20
B12	10
B13	100
B14	3

substrate: PET; assay: Proxy for plastic degradation [Released monomer concentration (HPLC/LC-MS) (TPA)]; conditions: pH 8

Protein	Proxy for plastic degradation [mM/mg]
B13	1

— the PETadex activity labels (doi:10.1021/acsomega.4c04843)
